Laboratory results from paper PMC8280513, “Marmoset glutathione transferases with ketosteroid isomerase activity” (Biochemistry and Biophysics Reports, 2021).

T1: CjaGST A1-1 (Callithrix jacchus, UniProt A0A7G0XAM3)
T1 construct: gene GSTA1; 222 amino acid residues, N-terminal hexahistidine tag
T1 sequence (A0A7G0XAM3 1-222): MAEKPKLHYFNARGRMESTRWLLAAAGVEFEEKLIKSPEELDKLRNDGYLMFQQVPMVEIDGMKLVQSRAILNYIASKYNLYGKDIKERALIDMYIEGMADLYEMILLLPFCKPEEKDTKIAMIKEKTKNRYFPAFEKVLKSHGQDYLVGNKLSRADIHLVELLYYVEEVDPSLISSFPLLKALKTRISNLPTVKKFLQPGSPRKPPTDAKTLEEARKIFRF

B1: CjaGST A1-1 (Callithrix jacchus) (protein)
chain: MAEKPKLHYFNARGRMESTRWLLAAAGVEFEEKLIKSPEELDKLRNDGYLMFQQVPMVEIDGMKLVQSRAILNYIASKYNLYGKDIKERALIDMYIEGMADLYEMILLLPFCKPEEKDTKIAMIKEKTKNRYFPAFEKVLKSHGQDYLVGNKLSRADIHLVELLYYVEEVDPSLISSFPLLKALKTRISNLPTVKKFLQPGSPRKPPTDAKTLEEARKIFRF

Key:
[1] = biological target: T1, CjaGST A1-1; test: specific activity, spectrophotometric assay; assay type: biochemical
[2] = substrate: [H][C@@]12CC=C3CC(=O)CC[C@]3(C)[C@@]1([H])CC[C@]1(C)C(=O)CC[C@@]21[H]; test: purified protein; conditions: glutathione H-site; Phe111 suggested to hinder steroid binding

Row | Molecule | specific activity [1] | Km [2] | kcat [2] | kcat/Km [2]
1 | S=C=NCCc1ccccc1 [PEITC, phenethyl isothiocyanate] | 8.80 ± 1.95 µmol/min/mg | – | – | –
2 | O=[N+]([O-])c1ccc(Cl)c([N+](=O)[O-])c1 [CDNB, 1-chloro-2,4-dinitrobenzene] | 26.1 ± 0.59 µmol/min/mg | – | – | –
3 | B1 | – | 303 ± 34 µM | 6.89 ± 0.79 s⁻¹ | 22700 M⁻¹ s⁻¹
